Test results as given in publication PMC3206013, “Unique Interplay between Sugar and Lipid in Determining the Antigenic Potency of Bacterial Antigens for NKT Cells” (PLoS Biology, 2011).
pKd: −log10 of the molar value.

Target: biotinylated mouse CD1d/β2m, wild type, loaded with α-GalCer (mouse) (UniProt P11609)
Test: SPR; α-GalCer loaded

Vα14Vβ8.2 iNKT TCR (mouse invariant NKT cell T cell receptor)
pKd: 7.40
